# Measured values as given in patent US12662540B2, “Compositions and methods for inhibition of MICA/B shedding” (DANA-FARBER CANCER INSTITUTE, INC., priority 2017, dated 2026).
# B1: 7C6: monoclonal antibody from mice immunized with recombinant MICA α3 domain; parental mIgG2b; VH SEQ ID NO: 7, VL SEQ ID NO: 8 (antibody)
# VH: QIQLVQSGPELKKPGETVKVSCKASGYMFTNYAMNWVKQAPEKGLKWMGWINTHTGDPTYADDFKGRIAFSLETSASTAYLQINNLKNEDTATYFCVRTYGNYAMDYWGQGTSVTVSSAKTTAPSVYPLAPVCGDTTGSSVTLGCLVKGYFPEPVTLTWNSGSLSSGVHTFPAVLQSDLYTLSSSVTVTSS
# VL: DIQMTQTTSSLSASLGDRVTISCSASQDISNYLNWYQQKPDGTVKLLIYDTSILHLGVPSRFSGSGSGTDYSLTISNLEPEDIATYYCQQYSKFPRTFGGGTTLEIK
# modifications: mAb 7C6 heavy chain amino acid sequence; mAb 7C6 light chain amino acid sequence
# Columns and labels:
# [1] = tested on: B16F10-MICA lung metastases; assay: Flow cytometry-based analysis of immune and tumor cells in lung tissue; format: in vivo, C57BL/6 mice
# Protocol: Wild-type mice were injected with 1×10^6 B16F10 cells that were previously transduced with ZsGreen-based lentiviral vectors (full-length MICA, secreted MICA or empty vector). In some experiments, mice received a lower dose of B16F10-MICA tumor cells (7×10^5). On days 1, 2, 7 and 10 following B16F10-MICA cell injection, mice received 200 μg of 7C6-mIgG2a or isotype control (C1184) antibodies by intraperitoneal injection. Prior to euthanasia, mice received an intravenous injection of 50 μl of APC-conjugated anti-CD45.2 (clone104, Biolegend) to label intravascular immune cells. Approximately 5 minutes later, mice were euthanized by CO2 inhalation and cell suspensions were generated from lung tissue. Lungs were cut into small pieces which were re-suspended in 10 ml of RPMI-1640 supplemented with 1 mg/ml collagenase type IV, 0.1 mg/ml hyaluronidase, and 20 U/ml DNase type IV. Samples were dissociated in a gentleMACS instrument (Miltenyi) using the program 37C_m_LDK 1 which digests the tissue by incubation with 37° C. followed by mechanical dissociation. Cells were then washed with PBS, Fc receptors were blocked with Mouse True Stain FcX (Biolegend), and cells were stained with PE-Cy7 or v450-conjugated anti-CD45.2 (104), PE or BV785-NK1.1 (PK136), PerCP-Cy5.5 or Alexa^700-NKp46 (29A1.4), APC or APC-Cy7-CD3c (145.2C11), APC or BV511-TCRβ, PE-Cy5 or Alexa^488-CD69 (H1.2F3), BV421-NKG2D (CX5), BV510-Ly49C (5E6), BV570-CD62L (MEL-14), BV605-CD49a (Ha31/8), Alexa^488-EOMES (Dan11mag), PE-Granzyme A (GzA-3G8.5), PE or PERCP-Cy5.5-CD16/CD32 (93), PE-Cy7-Granzyme B (NGZB), BV510-DNAM-1 (10E5), Alexa^488-KLRG1 (2F1), PE-CXCR6 (SA051D1), PERCP-Cy5.5 or PE-Cy7-CD127 (A7R34), BV510-CXCR3 (CXCR3-173), Zombie NIR, Zombie Yellow or Zombie UV (all from Biolegend, BD Pharmigen or eBiosciences). For transcription factor staining, cells were fixed and permeabilized by a Transcription Factor Buffer kit (BDB562574). For Fc receptor staining, small aliquots of cells from the lung suspensions were separated and stained with PE or PerCP-Cy5.5-CD16/32 antibody (the incubation with Mouse True Stain FcX was skipped in that aliquot of cells). Tumor cells were stained with APC-conjugated anti-H2-Kb (AF6-88.5, Biolegend) and BV650-activated Caspase-3 (C92-605, BD Pharmingen) following permeabilization. Even though the CD45.2 antibody given intravenously and the anti-H2-Kb antibody were conjugated to the same fluorophore (APC), B16F10 cells could be identified based on their larger size, ZsGreen expression as well as the absence of CD45.2 expression. Samples were acquired using a LSR Fortessa, CytoFLEX or a Sony Spectral Analyzer and analyzed by FlowJo V10 software.
# [2] = tested on: subcutaneous B16F10 tumors; assay: Subcutaneous B16F10-MICA model; format: in vivo, mice (C57BL/6, Igh−/−)
# Protocol: C57BL/6 mice were injected subcutaneously with 1×10^6 B16F10 cells that had been transduced with different lentiviral vectors (ZsGreen reporter). Five days later, treatment was initiated with 7C6-mIgG2a, 7C6-mIgG2b-DANA, or isotype control (C1184) antibodies (200 μg/mouse). Treatment was continued as indicated in the relevant figures. For antibody blockade, Igh^−/− mice were given 200 μg/mouse of anti-NKG2D (HMG2D) or control IgG (MOPC-21) on days −1, 0, 5, 9, 14, and 19. Mice were bled on day 9. Tumor size was monitored with a digital caliper and the tumor area was calculated by multiplying the two largest diameters. To minimize suffering, the end point was defined as a tumor size of 200 mm2.
# C57BL/6 mice were injected subcutaneously with 1×10^6 B16F10 cells that had been transduced with different lentiviral vectors (ZsGreen reporter). Five days later, treatment was initiated with 7C6-mIgG2a, 7C6-mIgG2b-DANA, or isotype control (C1184) antibodies (200 μg/mouse). Treatment was continued as indicated in the relevant Figures. For antibody blockade, Igh^−/− mice were given 200 μg/mouse of anti-NKG2D (HMG2D) or control IgG (MOPC-21) on days −1, 0, 5, 9, 14, and 19. Mice were bled on day 9. Tumor size was monitored with a digital caliper and the area was calculated by multiplying the two largest diameters. To minimize suffering, the end point was defined as the time point when tumors reached a size of 200 mm^2.
# Igh^−/− mice were injected subcutaneously with 1×10^6 B16F10-MICA cells that had been transduced with a ZsGreen-based lentiviral vector that drives MICA expression. On days 5, 7 and 9 after tumor cell inoculation, mice were treated with 200 μg 7C6-mIgG2a or isotype control antibodies. On days 7 and 14, sets of mice were euthanized and tumors were removed. Tumors were then mechanically dissociated to preserve MICA integrity on the cell surface. Next, Fc receptors were blocked using Mouse True Stain FcX (Biolegend). Cells were subsequently stained with a PE-conjugated anti-mouse IgG antibody (Poly4053, Biolegend). Cells were then washed and stained with APC-conjugated anti-MICAS antibody (6D4), PE-Cγ7-CD45.2 and Zombie NIR (all from Biolegend). Viable tumor cells were identified by flow cytometry based on size, ZsGreen fluorescence and absence of CD45.2 expression. Samples were examined using a Sony Spectral Analyzer or Beckman Coulter CytoFLEX, and data were analyzed by FlowJo.
# A375 melanoma cell line = assay: In vitro assay for inhibition of MICA shedding, A375 cells (sandwich ELISA of supernatant); format: cell-based, human; conditions: A375 cells treated for 24 hours
# Protocol: Tumor cells (5×10^4 or 1×10^5 per well, depending on the cell line) were cultured for 24 to 72 hours in 96-well plates (flat-bottom plates for adherent cell lines, U-bottom plates for suspension cell lines). Human and murine cell lines were cultivated in RPMI-1640 or DMEM media, respectively, supplemented with 10% fetal bovine serum (FBS), 1× Glutamax® (Gibco), and 1× Penicillin and Streptomycin (Gibco). MICA or control antibodies were added at different concentrations, and shed MICA/B was then detected in supernatants by ELISA using the Human MICA ELISA kit (Ab59569, Abcam) or Human MICB DuoSet ELISA kit (DY1599, R&D Systems), using the procedures recommended by the manufacturers. For both assays, standard curves were generated using recombinant MICA*008 or MICB*005 extracellular domain proteins that had been expressed using the Baculovirus system.
molecule,measurement,setting,value
B1,H2-Kb (MHC class I) expression by tumor cells,[1]; lung metastases,MHC class I upregulation
same,apoptosis of tumor cells (active caspase-3),[1]; lung metastases,massive tumor cell apoptosis
same,"B16F10-MICA tumor cells within lung tissue (percentage, absolute numbers)","[1]; mouse, in vivo",substantial reduction of tumor cell load within lung tissue
same,NKG2D levels on lung-infiltrating NK cells,[1]; versus isotype control,restored NKG2D levels by lung NK cells
same,"subcutaneous tumor growth inhibition, Igh−/− versus wild-type mice","[2]; B16F10-MICA, 200 μg",inhibited growth of subcutaneous B16F10-MICA melanomas more effectively in B cell deficient mice
same,therapeutic activity against subcutaneous tumors that secrete MICA or lack NKG2D ligands,[2]; Igh−/− mice,no therapeutic effect was observed
same,therapeutic activity against subcutaneous tumors expressing full-length MICA or MICB,"[2]; Igh−/− mice, treatment from day 5",restricted to subcutaneous tumors that expressed full-length MICA or MICB
same,receptor requirement for inhibition of subcutaneous tumor growth,"[2]; NKG2D blockade, DANA mutant",NKG2D and CD16 Fc receptors were also both required for inhibition of subcutaneous tumor growth
same,"clearance of secreted MICA protein (serum, day 9)",[2]; tumors secreting MICA,did not promote clearance of secreted MICA protein
same,"MICA and MICB shedding (serum, day 9)",[2]; tumors with full-length MICA or MICB,inhibited MICA and MICB shedding
same,MICA shedding (shed MICA released into supernatant),A375 melanoma cell line,inhibit MICA release into the supernatant
